We go through eight molecules from patent US11278600B2, “Human alpha-galactosidase variants” (Codexis, Inc., priority 2014, dated 2022).

Holding throughout (type): biochemical
Series [1] is described as follows: HTP-analysis of supernatants pretreated with acid (MUGal hydrolysis). Particulars: activity of the variant/activity of Rd3BB (SEQ ID NO: 13); for Relative Activity of GLA Variants After Challenge at pH 3.3: yeast supernatant. The method in brief: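 GLA variants were secreted from INVSc1 yeast grown 66-84 h at 30° C. in SD-Ura with 2% glucose; supernatants were mixed with McIlvaine buffer pH 3.3-4.3 and held at 37° C. for 1-3 h. Residual activity on MUGal at pH 4.8 was then measured by fluorescence.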

A short description of series [2]: HTP-analysis of supernatants pretreated with base (MUGal hydrolysis). Particulars: activity of the variant/activity of Rd3BB (SEQ ID NO: 13), challenge at pH 9.7. The gist of the method:
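GLA variants secreted from yeast INVSc1; culture supernatants pre-incubated with McIlvaine buffer pH 7.0–8.2 or 200 mM bicarbonate pH 9.1–9.7 at 37° C. for 1–18 h. Residual activity: MUGal (4 mM stock) hydrolysis at pH 4.3–4.8, 37° C., 30–180 min, carbonate quench; fluorescence Ex 355/Em 448 nm.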

Series [3] can be described thus: HTP-analysis of yeast culture supernatants, no challenge (MUGal hydrolysis). Particulars: activity of the variant/activity of Rd3BB (SEQ ID NO: 13). The method in brief: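 GLA variants were expressed in INVSc1 yeast grown in SD-Ura broth with glucose at 30° C., and culture supernatants were collected after 66-84 h. Supernatant was mixed with McIlvaine buffer pH 4.8 and MUGal (2 mM stock) in 50 mM citrate, 200 mM KCl, pH 4.6, incubated at 37° C. for 30-180 minutes, then quenched with sodium carbonate.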

B1: 545 (protein)
chain: LDNGLARTPTMGWLHWERFMCNLDCQEEPDSCISEKLFMEMAERMVSEGWKDAGYEYLCIDDCWMAPQRDSEGRLQADPQRFPHGIRQLANHVHSKGLKLGIYADVGNKTCAGFPGSFGYYDIDAQTFADWGVDLLKFDGCYCDSLENLADGYKHMSLALNRTGRSIVYSCEWPLYMWPFQKPNYTEIRQYCNHWRNFADIDDSWASIKSILDWTSRNQERIVDVAGPGGWNDPDMLVIGNFGLSWDQQVTQMALWAIMAAPLFMSNDLRHISPQAKALLQDKDVIAINQDPLGAQGYQLRKGDNFEVWERPLSGDAWAVAIINRQEIGGPRSYTIPVASLGKGVACNPACFITQLLPVKRQLGFYNWTSRLKSHINPTGTVLLQLENTMQMSLKDLL
modifications: Synthetic Polypeptide sequence of Variant No. 545 of mature Human GLA
Take B1: the “Relative Activity of GLA Variants After Challenge at pH 3.7” value in series [1] was “+ (+ = 1.5 to 5 relative activity over Rd3BB (SEQ ID NO: 13))”. For the same molecule, the “Relative Activity of GLA Variants After Challenge at pH 9.7” value (from here on “Relative Activity … at pH 9.7”) in series [2] is recorded as “++ (++ = >5 to 10 relative activity over Rd3BB (SEQ ID NO: 13))”. For the same molecule, in series [3], the “Relative Activity of GLA Variants After No Challenge (NC)” value was “+ (+ = 1.5 to 5 relative activity over Rd3BB (SEQ ID NO: 13))”.

B2: 611 (protein)
chain: LDNGLARTPTMGWLHWERFMCNLDCQEEPDSCISEKLFMEMAERMVSEGWKDAGYEYLCIDDCWMAPQRDSEGRLQADPQRFPHGIRQLANHVHSKGLKLGIYADVGNKTCAGFPGSFGYYDIDAQTFADWGVDLLKFDGCYCDSLENLADGYKHMSLALNRTGRPIVYSCEWPLYMWPFQKPNYTEIRQYCNHWRNFADIDDSWASIKSILDWTSRNQERIVDVAGPGGWNDPDMLVIGNFGLSWDQQVTQMALWAIMAAPLFMSNDLRHISPQAKALLQDKDVIAINQDPLGKQGYQLRKGDNFEVWERPLSGDAWAVAIINRQEIGGPRSYTIPVASLGKGVACNPACFITQLLPVKRQLGFYNWTSRLKSHINPTGTVLLQLENTQQMSLKDLL
modifications: Synthetic Polypeptide sequence of Variant No. 611 of mature Human GLA
For the molecule B2, the “Relative Activity of GLA Variants After Challenge at pH 3.3” value (shortened to “Relative Activity … at pH 3.3”) in series [1] is listed as “+++ (+++ = >10 relative activity over Rd3BB (SEQ ID NO: 13))”. Moreover, in series [2] (yeast supernatant), the “Relative Activity … at pH 9.7” value was “++ (++ = >5 to 10 relative activity over Rd3BB (SEQ ID NO: 13))”. Also, the “Relative Activity of GLA Variants After No Challenge (NC)” value in series [3] (yeast supernatant) is “+ (+ = 1.5 to 5 relative activity over Rd3BB (SEQ ID NO: 13))”.

B3: 634 (protein)
chain: LDNGLARTPTMGWLHWERFMCNLDCQEEPDSCISEKLFMEMADRMVSEGWKDAGYEYLCIDDCWMAPQRDSEGRLQADPQRFPHGIRQLANEVHSKGLKLGIYADVGNKTCAGFPGSFGYYDIDAQTFADWGVDLLKFDGCYCDSLENLADGYKHMSLALNRTGRPIVYSCEWPLYMWPFQKPNYTEIRQYCNHWRNFADIDDSWASIKSILDWTSRNQERIVDVAGPGGWNDPDMLVIGNFGLSWDQQVTQMALWAIMAAPLFMSNDLRHISPQAKALLQDKDVIAINQDPLGKQGYQLRKGDNFEVWERPLSGDAWAVAIINRQEIGGPRSYTIPVASLGKGVACNPACFITQLLPVKRQLGFYNWTSRLKSHINPTGTVLLQLENTMQMSLKDLL
modifications: Synthetic Polypeptide sequence of Variant No. 634 of mature Human GLA
Turning to B3, the “Relative Activity … at pH 3.3” value in series [1] is “++ (++ = >5 to 10 relative activity over Rd3BB (SEQ ID NO: 13))”. For the same molecule, the “Relative Activity … at pH 9.7” value in series [2] (yeast supernatant) is on record as “++ (++ = >5 to 10 relative activity over Rd3BB (SEQ ID NO: 13))”. Also, the “Relative Activity of GLA Variants After No Challenge (NC)” value in series [3] (yeast supernatant) is “+ (+ = 1.5 to 5 relative activity over Rd3BB (SEQ ID NO: 13))”.

B4: 546 (protein)
chain: LDNGLARTPTMGWLHWERFMCNLDCQEEPDSCISEKLFMEMAERMVSEGWKDAGYEYLCIDDCWMAPQRDSEGRLQADPQRFPHGIRQLANHVHSKGLKLGIYADVGNKTCAGFPGSFGYYDIDAQTFADWGVDLLKFDGCYCDSLENLADGYKHMSLALNRTGRSIVYSCEWPLYMWPFQKPNYTEIRQYCNHWRNFADIDDSWASIKSILDWTSRNQERIVDVAGPGGWNDPDMLVIGNFGLSWDQQVTQMALWAIMAAPLFMSNDLRHISPQAKALLQDKDVIAINQDPLGEQGYQLRKGDNFEVWERPLSGDAWAVAIINRQEIGGPRSYTIPVASLGKGVACNPACFITQLLPVKRQLGFYNWTSRLKSHINPTGTVLLQLENTMQMSLKDLL
modifications: Synthetic Polypeptide sequence of Variant No. 546 of mature Human GLA
Regarding B4, in series [1], the “Relative Activity of GLA Variants After Challenge at pH 3.7” value was “+++ (+++ = >10 relative activity over Rd3BB (SEQ ID NO: 13))”. The “Relative Activity … at pH 9.7” value in series [2] is “++ (++ = >5 to 10 relative activity over Rd3BB (SEQ ID NO: 13))”. In series [3], the “Relative Activity of GLA Variants After No Challenge (NC)” value is given as “+ (+ = 1.5 to 5 relative activity over Rd3BB (SEQ ID NO: 13))”.

B5: 633 (protein)
chain: LDNGLARTPTMGWLHWERFMCNLDCQEEPDSCISEKLFMEMADRMVSEGWKDAGYEYLCIDDCWMAPQRDSEGRLQADPQRFPHGIRQLANSVHSKGLKLGIYADVGNKTCAGFPGSFGYYDIDAQTFADWGVDLLKFDGCYCDSLENLADGYKHMSLALNRTGRPIVYSCEWPLYMWPFQKPNYTEIRQYCNHWRNFADIDDSWASIKSILDWTSRNQERIVDVAGPGGWNDPDMLVIGNFGLSWDQQVTQMALWAIMAAPLFMSNDLRHISPQAKALLQDKDVIAINQDPLGKQGYQLRKGDNFEVWERPLSGDAWAVAIINRQEIGGPRSYTIPVASLGKGVACNPACFITQLLPVKRQLGFYNWTSRLKSHINPTGTVLLQLENTMQMSLKDLL
modifications: Synthetic Polypeptide sequence of Variant No. 633 of mature Human GLA
As to B5, the “Relative Activity … at pH 3.3” value in series [1] was “++ (++ = >5 to 10 relative activity over Rd3BB (SEQ ID NO: 13))”. In addition, in series [2] (yeast supernatant), the “Relative Activity … at pH 9.7” value is on record as “++ (++ = >5 to 10 relative activity over Rd3BB (SEQ ID NO: 13))”. Besides, the “Relative Activity of GLA Variants After No Challenge (NC)” value in series [3] (yeast supernatant) is given as “+ (+ = 1.5 to 5 relative activity over Rd3BB (SEQ ID NO: 13))”.

B6: 610 (protein)
chain: LDNGLARTPTMGWLHWERFMCNLDCQEEPDSCISEKLFMEMAERMVTEGWKDAGYEYLCIDDCWMAPQRDSEGRLQADPQRFPHGIRQLANHVHSKGLKLGIYADVGNKTCAGFPGSFGYYDIDAQTFADWGVDLLKFDGCYCDSLENLADGYKHMSLALNRTGRPIVYSCEWPLYMWPFQKPNYTEIRQYCNHWRNFADIDDSWASIKSILDWTSRNQERIVDVAGPGGWNDPDMLVIGNFGLSWDQQVTQMALWAIEAAPLFMSNDLRHISPQAKALLQDKDVIAINQDPLGKQGYQLRKGDNFEVWERPLSGDAWAVAIINRQEIGGPRSYTIPVASLGKGVACNPACFITQLLPVKRQLGFYNWTSRLKSHINPTGTVLLQLENTQQMSLKDLL
modifications: Synthetic Polypeptide sequence of Variant No. 610 of mature Human GLA
Turning to B6, the “Relative Activity … at pH 3.3” value in series [1] is on record as “+ (+ = 1.5 to 5 relative activity over Rd3BB (SEQ ID NO: 13))”. In addition, the “Relative Activity … at pH 9.7” value in series [2] (yeast supernatant) was “− (− = <1.5 relative activity to Rd3BB (SEQ ID NO: 13))”. In series [3] (yeast supernatant), the “Relative Activity of GLA Variants After No Challenge (NC)” value is “+ (+ = 1.5 to 5 relative activity over Rd3BB (SEQ ID NO: 13))”.

B7: 614 (protein)
chain: LDNGLARTPTMGWLHWERFMCNLDCQEEPDSCISEKLFMEMAERMVTEGWKDAGYEYLCIDDCWMAPQRDSEGRLQADPQRFPHGIRQLANHVHSKGLKLGIYADVGNKTCAGFPGSFGYYDIDAQTFADWGVDLLKFDGCYCDSLENLADGYKHMSLALNRTGRPIVYSCEWPLYMWPFQKPNYTEIRQYCNHWRNFADIDDSWASIKSILDWTSRNQERIVDVAGPGGWNDPDMLVIGNFGLSWDQQVTQMALWAIMAAPLFMSNDLRHISPQAKALLQDKDVIAINQDPLGKQGYQLRKGDNFEVWERPLSGDAWAVAIINRQEIGGPRSYTIPVASLGKGVACNPACFITQLLPVKRQLGFYNWTSRLKSHINPTGTVLLQLENTMQMSLKDLL
modifications: Synthetic Polypeptide sequence of Variant No. 614 of mature Human GLA
Regarding B7, in series [1], the “Relative Activity … at pH 3.3” value is on record as “++ (++ = >5 to 10 relative activity over Rd3BB (SEQ ID NO: 13))”. In addition, the “Relative Activity … at pH 9.7” value in series [2] (yeast supernatant) is “++ (++ = >5 to 10 relative activity over Rd3BB (SEQ ID NO: 13))”. For the same molecule, in series [3] (yeast supernatant), the “Relative Activity of GLA Variants After No Challenge (NC)” value was “+ (+ = 1.5 to 5 relative activity over Rd3BB (SEQ ID NO: 13))”.

B8: 613 (protein)
chain: LDNGLARTPTMGWLHWERFMCNLDCQEEPDSCISEKLFMEMAERMVNEGWKDAGYEYLCIDDCWMAPQRDSEGRLQADPQRFPHGIRQLANHVHSKGLKLGIYADVGNKTCAGFPGSFGYYDIDAQTFADWGVDLLKFDGCYCDSLENLADGYKHMSLALNRTGRPIVYSCEWPLYMWPFQKPNYTEIRQYCNHWRNFADIDDSWASIKSILDWTSRNQERIVDVAGPGGWNDPDMLVIGNFGLSWDQQVTQMALWAIMAAPLFMSNDLRAISPQAKALLQDKDVIAINQDPLGKQGYQLRKGDNFEVWERPLSGDAWAVAIINRQEIGGPRSYTIPVASLGKGVACNPACFITQLLPVKRQLGFYNWTSRLKSHINPTGTVLLQLENTQQMSLKDLL
modifications: Synthetic Polypeptide sequence of Variant No. 613 of mature Human GLA
Take B8: in series [1], the “Relative Activity … at pH 3.3” value is on record as “++ (++ = >5 to 10 relative activity over Rd3BB (SEQ ID NO: 13))”. The “Relative Activity … at pH 9.7” value in series [2] (yeast supernatant) is recorded as “++ (++ = >5 to 10 relative activity over Rd3BB (SEQ ID NO: 13))”. Also, in series [3] (yeast supernatant), the “Relative Activity of GLA Variants After No Challenge (NC)” value is recorded as “+ (+ = 1.5 to 5 relative activity over Rd3BB (SEQ ID NO: 13))”.
